Measured values taken from the nanobody polyreactivity screen of Harvey et al. (2022).

Assay: yeast display, Sf9 membrane polyspecificity reagent, FACS + sequencing; frameworks hold sequencing errors
Method in brief: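 Galactose induction of a Saccharomyces cerevisiae BJ5465 synthetic nanobody display library ran 36–48 hours. The cells were then stained for 1 hour at 4 °C with 10% biotinylated, detergent-solubilized Sf9 membrane reagent, pulled down on streptavidin microbeads and FACS-sorted into low and high (top ~1%) gates on expression and reagent-binding fluorescence. Labels for polyreactivity follow the gate of origin.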
For “QVQLVESGGGLVQAGGSLRLSCAASGSTFTPNAMGWYRQAPGKERELVASISTTGGNTYYADSVKGRFTISRDNAKNTVYLQMNSLKPEDTADYYCNAVRSVYLYGYIYGVDYWGQGTQVTVSS”, the “polyreactivity (PSR sort gate)” value was “low polyreactivity”. For “QVQLVESGGGLVQAGGSLRLSCAASGSTFTPNARGSYRQAPGKERELVAAINYLGGSTYYADSVKGRFTISRDNAKNTVYVQMNSLKPEDTAVYYCARRQYFRGQRYDYWGQGTQVTVSS”, the “polyreactivity (PSR sort gate)” value was “high polyreactivity”. In the case of “QVQLVESGGGLVQAGGSLRLSCAASGSTFTPYAMGWYRQAPGKERELVAAINSRGGSTYYADSVKGRFTISRDNAKNTVYLQMHSLKPEDSAVYYCAARTRRRTSAYEYWGQGTQVTVSS”, the “polyreactivity (PSR sort gate)” value is reported as “high polyreactivity”. For “QVQLVESGGGLVQAGGSLRLSCAASGSTFTPYAMGWYRQAPGKERELVASITIGGSTYADSVKGRFTISRDNAKNTVYLQMNSLKPEDTAVYSCNADWNWYPFLYSRMDYWGQGTQVTVSS”, the “polyreactivity (PSR sort gate)” value was “low polyreactivity”. In the case of “QVQLVESGGGLVQAGGSLRLSCAASGSTFTPYGMGWYRQAPGKERELVAAITVSGGRTYYADSVKGRFTISRDNAKNTVYLQMNSLKPEDTAVYYCAAVYLRGDGEYDSWGQGTQVTVSS”, the “polyreactivity (PSR sort gate)” value is reported as “low polyreactivity”. For “QVQLVESGGGLVQAGGSLRLSCAASGSTFTQKAMGWYRQAPGKERELVAAISSSGTRTYYADSVKGRFTISRDNAKNTVYLQMNSLKPEDTAVYYCNARYRIGSWYEFGSWGQGTQVTVSS”, the “polyreactivity (PSR sort gate)” value was “high polyreactivity”. With “QVQLVESGGGLVQAGGSLRLSCAASGSTFTQYVMGWYRQAPGKERELVAAISDSGSTYYADSVKGRFTISRDNAKNTVYLQMNSLKPEDTAVYYCATDVLAWAPYDYWGQGTQVTVSS” the “polyreactivity (PSR sort gate)” value was “low polyreactivity”. For “QVQLVESGGGLVQAGGSLRLSCAASGSTFTRNTMGWYKQAPGKEREMVAAISRRGGRTDYADSVKGRFTISRDNAKNSVYLQMNSLKPEDTAVYYCAADPITVDQNPRYGYWGQGTQVTVSS”, the “polyreactivity (PSR sort gate)” value was “high polyreactivity”. In the case of “QVQLVESGGGLVQAGGSLRLSCAASGSTFTRYAMGWYRQAPGKERELVASISRSGGRTYYADSVKGRFTISRDNAKNTVYLQMNSLKPEDTAVYYCAKLYLVTKSLLEITGGKYDGDYWGQGTQVTVSS”, the “polyreactivity (PSR sort gate)” value is reported as “high polyreactivity”. With “QVQLVESGGGLVQAGGSLRLSCAASGSTFTRYDMGSYRQAPGKERELVAAISKSGGSTYYADSVKGRFRISRDNAKNTVYLQMNSLKPEDTAVYYCNQLVEEDYWGQGTQVTVSS” the “polyreactivity (PSR sort gate)” value was “low polyreactivity”. For “QVQLVESGGGLVQAGGSLRLSCAASGSTFTRYDMGWYRQAPGKERELVAAISKSGGSTYYADSVKGRFTISRDNAKNTVYLQMNSLKPEDTAVYYCARGSTKYHIYSLDYWGQGTQVTVSS”, the “polyreactivity (PSR sort gate)” value was “low polyreactivity”. In the case of “QVQLVESGGGLVQAGGSLRLSCAASGSTFTSSAMGWYRQAPGKERELVAAISKSGGSTYYADSVKGRFTLSRDNAKNTVYLQMNSLKPEDTAVYYCAARYNVRSYSTSRFDYWGQGTQVTVSS”, the “polyreactivity (PSR sort gate)” value is reported as “low polyreactivity”. With “QVQLVESGGGLVQAGGSLRLSCAASGSTFTSYAMGWYRQAPGKERELVAAINYSGGSTYYADSVKGRFTISRDNAKNTVYLQMNSLKPEDTAVYYCAADGYIRQYVTYYYWGQGTQVTVSS” the “polyreactivity (PSR sort gate)” value was “low polyreactivity”. For “QVQLVESGGGLVQAGGSLRLSCAASGSTFTSYAMGWYRQAPGKERELVAGITSRGTSTYYADSVKGRFTISRDNAKNTVYLQMNSLKPEDTAVYYCARDPYQPKVSGRLFLRYDYWGQGTQVTVSS”, the “polyreactivity (PSR sort gate)” value was “high polyreactivity”. In the case of “QVQLVESGGGLVQAGGSLRLSCAASGSTFTSYAMGWYRQAPGKERELVATISKISGSTYYADSVKGRFTISRDNAKNTVYLQMNSLKPEDTAVYYCAAKQGWVQSSILWYRAYGYWGQGTQVTVSS”, the “polyreactivity (PSR sort gate)” value is reported as “high polyreactivity”. With “QVQLVESGGGLVQAGGSLRLSCAASGSTFTTNAMGWYIQAPGKERELVASITWSGGGTNYADSVKGRFTISRDNAKNTVYLQMNSLKPEDTAVYYCAADYDDSHLRSDYWGQGTQVTVSS” the “polyreactivity (PSR sort gate)” value was “low polyreactivity”. For “QVQLVESGGGLVQAGGSLRLSCAASGSTFTTYAMGWYRQAPGKERELVAVITDSRGTYYADSVKGRFTISRDNAKNTVYLQMHSLKPEDTALYYCNRVFPPTDYEFDSWGQGTQVTVSS”, the “polyreactivity (PSR sort gate)” value was “low polyreactivity”. With “QVQLVESGGGLVQAGGSLRLSCAASGSTFTVNAMGWYRQAPGKERELVAAINGSGDITYYADSVTGRFTISRDNAKNTVYLQMNSLKPEDTAVYYCAADQGVPSTYDYWGQGTQVTVSS” the “polyreactivity (PSR sort gate)” value was “low polyreactivity”. In the case of “QVQLVESGGGLVQAGGSLRLSCAASGSTFTVNDMGWYRQAPGKERELVAAITQRDGRTFYADSVKGRFTISRDNAQNTVYLLMNSLKPEDTAVYYCAADYGWYTYGDYDYWGQGTQVTVSS”, the “polyreactivity (PSR sort gate)” value is reported as “low polyreactivity”. In the case of “QVQLVESGGGLVQAGGSLRLSCAASGSTFTVYAMGWYRQAPGKERELVAAIRDGSSTNYADSVKGRFTISRDNAKNTVYLQMNSLKPEDTAVYYCNAPYPPTGYGDDDYWGQGTQVTVSS”, the “polyreactivity (PSR sort gate)” value is reported as “low polyreactivity”. In the case of “QVQLVESGGGLVQAGGSLRLSCAASGSTFTVYAMGWYRQAPGKERELVAAISWGGGSTNYADSVKGRFTISRDNAKNTVYLQMNSLKPEDTAVYYCNADIDDIIGSWGDYWGQGTQVTVSS”, the “polyreactivity (PSR sort gate)” value is reported as “low polyreactivity”. For “QVQLVESGGGLVQAGGSLRLSCAASGSTFTWNVMGWYREAPGKERELVAAIDGSGGDTYYADSVKGRFTISRDHAKNTVYLQMNSLNPEDTAVYYCAAEDAAAYSENDYWGQGTQVTVSS”, the “polyreactivity (PSR sort gate)” value was “low polyreactivity”. With “QVQLVESGGGLVQAGGSLRLSCAASGSTFTWYAMGWNRQAPGKERELVADITWRDGSTYYADSVKGRFTISRDNAKNTVYLQMNSLKPEDTAVYYCNARRDYDMDWGQGTQVTVSS” the “polyreactivity (PSR sort gate)” value was “high polyreactivity”. For “QVQLVESGGGLVQAGGSLRLSCAASGSTFTWYAMGWYRQAPGKERELVAAISWSGDSTYYADSVKGRFTISRDNAKNTVYLQMNSLKPEDTAVYYCAAENVYGYDYWGQGTQVTVSS”, the “polyreactivity (PSR sort gate)” value was “high polyreactivity”. For “QVQLVESGGGLVQAGGSLRLSCAASGSTFTWYAMGWYRQAPGKERELVARINFSGGSTYADSVKGRFTISRDNAKNTVYLQMNSLKPEDTAVYYCAAVYPGRKARRKYDYWGQGTQVTVSS”, the “polyreactivity (PSR sort gate)” value was “low polyreactivity”. For “QVQLVESGGGLVQAGGSLRLSCAASGSTFTWYAMGWYRQAPWKERELVADISYGGGSTYYADSVKGRFTISRDNAKNTVYLQMNSLKPEDTEVYYCAAASYLYLYLLEDYWGQGTQVTVSS”, the “polyreactivity (PSR sort gate)” value was “low polyreactivity”. With “QVQLVESGGGLVQAGGSLRLSCAASGSTFTWYGMGWYRQAPGKETELVAAISGSGGRTYYADSVKGRFTISRDNAKNTVYFQMNSLKPEDTAVYYCNADPANPFGTEFEYWGQGTQVTVSS” the “polyreactivity (PSR sort gate)” value was “high polyreactivity”. In the case of “QVQLVESGGGLVQAGGSLRLSCAASGSTFTYNAMGWYRQAPGKERELVASISSGTTTYYADSVKGRFTISRDNAKNTVYLQMNSLKPEDTAVYYCNADYFDYSRPRYDYWGQGTQVTVSS”, the “polyreactivity (PSR sort gate)” value is reported as “low polyreactivity”. With “QVQLVESGGGLVQAGGSLRLSCAASGSTFTYNTMGWYRQAPGQERELVAAISSGGSTYYADSVKGRFTFSRDNAKNTVSLQMNSLKPEDTAVYYCAARSRYGESPGYYWGQGTQVTVSS” the “polyreactivity (PSR sort gate)” value was “high polyreactivity”. For “QVQLVESGGGLVQAGGSLRLSCAASGSTFTYYAMGWYRQAPGKERELFAAITFRGDSTYYADSVKGRFTISRDNAKNTVYLQMNILKPEDTAVYYCNADSISSTYYDEDYWGQGTQVTVSS”, the “polyreactivity (PSR sort gate)” value was “low polyreactivity”. With “QVQLVESGGGLVQAGGSLRLSCAASGSTFTYYAMGWYRQAPGKERELVAAISNSGTSTYYADSVKGRFTISRDNAKNTVYLQMNSLKPEDTAVYYCNAYSDLFGSYTDLGEYDYWGQGTQVTVSS” the “polyreactivity (PSR sort gate)” value was “low polyreactivity”. For “QVQLVESGGGLVQAGGSLRLSCAASGSTFTYYAMGWYRQAPGKERELVAAISRRGGSTYYADSVKGRFTISRDNAKNTVYLQMNSLKPEDTAVYYCNARLKPLWGGRYDYWGQGTQVTVSS”, the “polyreactivity (PSR sort gate)” value was “high polyreactivity”.
